The data set deals with Fur (Salmonella enterica serovar Typhimurium …, UniProt A0A0H3NJ13 1-150). In words: fluorescence anisotropy.

B1: furbox (dsDNA)
DNA 1: GGGGATAATGATAATCATTATCGGG
DNA 2: CCCGATAATGATTATCATTATCCCC
In general, Kd refers to the equilibrium constant for the complex coming apart. Low readings indicate tighter binding, high ones weaker binding. B1 returned a Kd of 0.056 µM.

Source of the values: article PMC6420079.
